Our source for the switch fluorescence ratio values is the supplement of paper PMC10126150.

The test system of the data set is ATP. The data set is described as follows: switch fluorescence ratio, 500 uM ATP over buffer (Cy3 cluster intensity, sum of 5 cycles each) (fold (ratio)); higher = stronger signal-on switching upon ATP binding; sequences stand for … in TCGTCGGCAGCGTCAGATGTGTATAAGAGACAGTTTTTTTTTTTTTTTTTTTTTTTTT…TC. The following applies: aptamer strand: ATP DNA aptamer (quencher-CACCTGGGGGAGTATTGCGGAGGAAGG + anchor), 100 nM annealed; ATP concentration: 500 uM. In short, it runs like this:
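Clusters with intensities outside 100-1000 RFU were excluded. The remaining Cy3-labelled switching-strand clusters on a modified Illumina MiSeq flow-cell had been annealed to 100 nM quencher-labelled ATP aptamer and imaged in selection buffer, then after 15 min with 500 uM ATP at 22 °C, for five cycles separated by NaOH stripping and re-annealing. The fluorescence ratio, averaged per switch-domain sequence, is each cluster's summed target-cycle Cy3 intensity over its summed buffer-cycle Cy3 intensity.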

± gives the standard deviation of the averaged measurements.
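Also: ATP exposure 15 min at 22 °C before imaging.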

As to GGCCGGTAAA, the switch fluorescence ratio was 1 ± 0.051.

As for GGGTATAACG, the switch fluorescence ratio is 0.974 ± 0.035.

Turning to TCTAGTGGTA, the switch fluorescence ratio was 0.9893 ± 0.0096.

Take TAGGGCATTG: the switch fluorescence ratio is 1.01 ± 0.012.

For the sequence TTCCGGTTCT, the switch fluorescence ratio was determined as 1.03 ± 0.013.

Turning to TGAGAGATTT, the switch fluorescence ratio worked out at 0.984 ± 0.011.

In the case of AGTTGGAGGA, the switch fluorescence ratio is 0.991 ± 0.015.

With CTTAGAATCG, the switch fluorescence ratio was 1 ± 0.025.

For GGATAGGGTA, the switch fluorescence ratio was found to be 0.974 ± 0.043.

For the sequence CCCCAAAAGT, the switch fluorescence ratio worked out at 1.12 ± 0.14.

In the case of TTGGTTTGTG, the switch fluorescence ratio is 1.01 ± 0.035.

Regarding GAGGGGAAAA, the switch fluorescence ratio amounted to 0.99 ± 0.04.

For ATGGGCCGCT, the switch fluorescence ratio stood at 0.9835 ± 0.0087.

Consider GTTGCTTTTT, for which the switch fluorescence ratio is 0.998 ± 0.035.

Consider AGTGACGCGT, for which the switch fluorescence ratio turned out to be 1.007 ± 0.0033.

Consider ATTTTTGAGC, for which the switch fluorescence ratio amounted to 1.04 ± 0.048.

For TAAGTTTTGC, the switch fluorescence ratio turned out to be 0.979 ± 0.038.

For the sequence GGGCTTGTGT, the switch fluorescence ratio came out at 0.993 ± 0.032.

As for GGGTGATGGG, the switch fluorescence ratio is 0.977 ± 0.032.

Turning to GGGGTTTTTA, the switch fluorescence ratio amounted to 0.995 ± 0.034.

In the case of GGAATTTTGC, the switch fluorescence ratio is 1.03 ± 0.031.

As to TACGGGGAT, the switch fluorescence ratio turned out to be 1.84 ± 1.2.

TCAACTATAG: the switch fluorescence ratio worked out at 0.999 ± 0.01.

On to TTTTTTAACA, for which the switch fluorescence ratio was 1.01 ± 0.027.

On to CTAATCGGTC, for which the switch fluorescence ratio was found to be 0.874 ± 0.029.

As for ATCGGTATCC, the switch fluorescence ratio came out at 1.035 ± 0.0064.

For the sequence ATGAGTAAAG, the switch fluorescence ratio is 0.999 ± 0.025.

As to ACATGTAGCG, the switch fluorescence ratio amounted to 0.99 ± 0.021.

As to AGGTTTCGAG, the switch fluorescence ratio amounted to 0.997 ± 0.023.

For the sequence GCCTTCCTTT, the switch fluorescence ratio was found to be 2.15 ± 0.72.

As for TCGGGTTGTG, the switch fluorescence ratio is 0.959 ± 0.031.

As for CATTCAGTTC, the switch fluorescence ratio came to 1 ± 0.058.

With ACTAGAAGGG, the switch fluorescence ratio was found to be 0.9833 ± 0.0037.

As for CGTTGCATGC, the switch fluorescence ratio came out at 1.39 ± 0.099.

As to CGTGGCTATG, the switch fluorescence ratio was found to be 0.959 ± 0.019.

On to TGTCCTTAAA, for which the switch fluorescence ratio was 0.9898 ± 0.0039.

With TAGGAGGGGT, the switch fluorescence ratio stood at 0.999 ± 0.022.

Take TTTTGAGCTT: the switch fluorescence ratio is 1.04 ± 0.081.

As to TTTTAGAGTG, the switch fluorescence ratio is 1 ± 0.036.

As to GAGTTTAAAT, the switch fluorescence ratio was determined as 1.02 ± 0.022.

Consider ACTCAGACCT, for which the switch fluorescence ratio amounted to 1.3 ± 0.067.

For the sequence TCTAATTCAA, the switch fluorescence ratio came to 0.996 ± 0.018.

For CTTTGCCTAG, the switch fluorescence ratio stood at 0.9806 ± 0.0088.

For the sequence AGTTGAGCAG, the switch fluorescence ratio stood at 1.02 ± 0.021.

For the sequence GAGTCATGCG, the switch fluorescence ratio stood at 0.911 ± 0.093.

For AGAATTGAGA, the switch fluorescence ratio is 0.971 ± 0.019.

With ACGGTTTTAA, the switch fluorescence ratio was 1 ± 0.03.

For GTTGCCGGGG, the switch fluorescence ratio was 1.01 ± 0.015.

Regarding TATGTTATTC, the switch fluorescence ratio amounted to 1.01 ± 0.045.

For the sequence TATGTTGCGT, the switch fluorescence ratio came out at 0.9975 ± 0.0078.

As to TTGGTGGATC, the switch fluorescence ratio came out at 1.03 ± 0.03.

As to GCCACGTCAA, the switch fluorescence ratio amounted to 1.06 ± 0.067.

For the sequence GGTATTGGGA, the switch fluorescence ratio is 0.989 ± 0.018.

With TTTGGGGATG, the switch fluorescence ratio was 1 ± 0.033.

As to GAGCGTGTGA, the switch fluorescence ratio is 1.02 ± 0.019.

Regarding TTATCTAGTT, the switch fluorescence ratio came out at 1 ± 0.054.

In the case of CCTCGGTGCG, the switch fluorescence ratio is 1.02 ± 0.0087.

Take AGCAACGTTC: the switch fluorescence ratio amounted to 1.07 ± 0.081.

As for TTTTATAGCG, the switch fluorescence ratio came to 0.99918 ± 0.00023.

In the case of TGGCAAAATT, the switch fluorescence ratio came out at 1.01 ± 0.033.

With CCGTTGTAAG, the switch fluorescence ratio amounted to 1.0184 ± 0.001.

On to TGGTGACCGT, for which the switch fluorescence ratio is 1 ± 0.025.

For the sequence TTTCTCTGGT, the switch fluorescence ratio was 0.993 ± 0.045.

Regarding TATTCTAGTG, the switch fluorescence ratio was 1.013 ± 0.01.

CTCCTGTGTT: the switch fluorescence ratio was found to be 1.06 ± 0.0073.

Regarding TCCTTTTATG, the switch fluorescence ratio was 0.98329 ± 2.8e-05.

As for GTTAGTCGGT, the switch fluorescence ratio amounted to 0.983 ± 0.032.

Take GGGTGAAACA: the switch fluorescence ratio was 0.987 ± 0.069.

AAGGTATGTG: the switch fluorescence ratio was found to be 1.025 ± 0.0038.

On to ATAAGATTAC, for which the switch fluorescence ratio was 1.012 ± 0.0091.

As to ACTGGATCCA, the switch fluorescence ratio was found to be 1.01 ± 0.013.

Turning to GGGGAGAGAT, the switch fluorescence ratio turned out to be 0.999 ± 0.064.

With GGGGTCGGGC, the switch fluorescence ratio is 0.998 ± 0.015.

Take TAAAAGGCAT: the switch fluorescence ratio amounted to 1.03 ± 0.028.

Consider TGGGGAAGGA, for which the switch fluorescence ratio turned out to be 0.99 ± 0.018.

On to AATTTTTGTT, for which the switch fluorescence ratio came out at 1 ± 0.029.

For GGGAGTTGG, the switch fluorescence ratio was determined as 0.992 ± 0.017.

As to TTGTTGTTCG, the switch fluorescence ratio came out at 1.01 ± 0.034.

For GGTGTGGCGC, the switch fluorescence ratio was determined as 0.955 ± 0.0063.

In the case of GGGGATATCG, the switch fluorescence ratio is 1.03 ± 0.024.

With ACTAGGCCGA, the switch fluorescence ratio is 1.01 ± 0.044.

Consider TTTTTATGGC, for which the switch fluorescence ratio worked out at 0.978 ± 0.028.

Take AAGAAGCTTT: the switch fluorescence ratio is 1.27 ± 0.38.

In the case of GGTTAAGGAT, the switch fluorescence ratio came out at 0.9884 ± 0.0023.

In the case of TAGAGGAG, the switch fluorescence ratio amounted to 1.01 ± 0.05.

Take TTTTGAGAAT: the switch fluorescence ratio was found to be 1.017 ± 0.0015.

For TTGGTTGTGT, the switch fluorescence ratio was 1.01 ± 0.015.

Turning to GTTTGTTGGC, the switch fluorescence ratio stood at 0.967 ± 0.056.

Consider GACATTTGGA, for which the switch fluorescence ratio was determined as 1.017 ± 0.0066.

On to AGCGCAAAAT, for which the switch fluorescence ratio was determined as 1.02 ± 0.069.

TTCAGGTTCT: the switch fluorescence ratio turned out to be 1 ± 0.04.

For TTTCGCCATG, the switch fluorescence ratio came out at 0.995 ± 0.026.

On to GTCTTATTTA, for which the switch fluorescence ratio worked out at 0.976 ± 0.014.

As for GCTGCGGGTC, the switch fluorescence ratio turned out to be 1.02 ± 0.033.

On to TAGGAGTTTG, for which the switch fluorescence ratio turned out to be 0.9894 ± 0.0046.

In the case of TTGTTAAAGT, the switch fluorescence ratio came to 1 ± 0.038.

Turning to ATTAGGCAAT, the switch fluorescence ratio came out at 1.22 ± 0.061.

GTTGAGGTTC: the switch fluorescence ratio is 1.03 ± 0.035.

As for GTTTGCAAGA, the switch fluorescence ratio stood at 1.01 ± 0.028.

As for CGAGACTTAT, the switch fluorescence ratio was determined as 0.996 ± 0.013.

As to TAGTTTCTGG, the switch fluorescence ratio worked out at 0.965 ± 0.02.

As for GATTTTGGTT, the switch fluorescence ratio is 0.998 ± 0.014.

Turning to TATCCTTTGA, the switch fluorescence ratio came out at 1.002 ± 0.0014.

Consider GACGTAGGTC, for which the switch fluorescence ratio was determined as 1 ± 0.029.

With CCAGGCTTAA, the switch fluorescence ratio is 1.06 ± 0.036.

GTGATGGGGG: the switch fluorescence ratio was 1.01 ± 0.051.

For the sequence TGTTGTGGTG, the switch fluorescence ratio turned out to be 1 ± 0.033.

On to TAGTGGAAAC, for which the switch fluorescence ratio was 0.9885 ± 0.0015.

Turning to AAAGCCTGGG, the switch fluorescence ratio turned out to be 0.966 ± 0.027.

Turning to AGGCGGTAGC, the switch fluorescence ratio was found to be 1.02 ± 0.0037.

For CATAGGATGG, the switch fluorescence ratio is 0.947 ± 0.025.

As for TTTTTTGAAG, the switch fluorescence ratio stood at 0.997 ± 0.03.

Consider CGAATCCATT, for which the switch fluorescence ratio is 0.9869 ± 0.0033.

Take TATATCAATC: the switch fluorescence ratio was determined as 0.991 ± 0.013.

As for TTGAGGAAGG, the switch fluorescence ratio is 0.9835 ± 0.0018.

In the case of CTTTCTTTTT, the switch fluorescence ratio stood at 0.992 ± 0.018.

As for GTACGAGGGA, the switch fluorescence ratio was determined as 0.997 ± 0.026.

Turning to GGCAGTTTTG, the switch fluorescence ratio stood at 1.01 ± 0.0062.

For the sequence TGACGAAACT, the switch fluorescence ratio came to 1.35 ± 0.33.

Consider TACCGACATA, for which the switch fluorescence ratio is 1.189 ± 0.0084.
